Assay results as given in the domain aggregation screens of Martell et al. (2025).

Assay: soluble fraction after stress (log2 fold change); higher = more stays soluble; pooled small domains, quantitative proteomics
Details: stress: 75 degC
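Also: 20 min heating vs room temperature control held 20 min.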

Sequence | soluble fraction (log2)
HMDVQNLTKKNQEFINIVTHQLLQSGKSDEDIQTILAKTLPEIIEKQKQGIPARSFLGAPTAWAAQFI | -0.0596
HMDVRLAKVYMLPANPYLRFIEFDDGTHGKFRAKPGKFGLGSVVKVKREDGDMYTLEGNYDGKDRL | -0.763
HMDVSPVRLIREARGLSQVEVAKAAGLSRAAYQNIEVGKTVPRASTMVNIARALGVSMDDLLAPV | -0.437
HMDVSVPDVTGTRLDRAQSLLEAQGLTLGKVEEFFHATEPAGIVYDQEPRPGTRVDEGTAISVSVSKGPEA | 0.323
HMDWFDELKVSTDDSGRVTAPEESEFMFQTSNEKIFAGGDMVRGSDLVVTAIWEGRQAAEGIMDYLD | -0.02
HMDWPDDETIARIYALIKSDISSQARKVMELRFSEGMPFARIAAAMGISETAVYRHLSHALTVIRQKLN | -2.14
HMDWREMTAWMAELLKRRTGDDVETWNARVRESGAHDEASLRAWLTEQGVTGYAQTLLVMERFGYPDFF | -2.89
HMDYADISYKIFMNHIKNGQVERVELSGDPRIMGKLKDGTYFVTDNPRTENFKEFLLLNNVQVIETN | 0.738
HMDYEVPEELQQKFEEFPRLKEAFYQLTPGRQHQYLYYFSQAKRSQTRYNRIDKYMNAILQGKGMK | -1.67
HMDYINALTTAGITDAKVIVTAPFDVSGTAALTGIYKAYEDITGSSLNEIAKAVGVEELITTGNLA | 0.23
HMDYKAELDNIIRDHLDMEGPLLPVLHAVMARFSYIPKDAIPIIARKLNLSSAEVSGVISFYHDFKKEK | -1.81
HMDYKYYIVKEPMVVKNLELPVGTRIVYFNTSLFGDSESSRPLKEKNIYQIFFPDDKPLIWGGVPVSLIER | -2.24
HMDYNLTKNQKIVFNLLQNSGEPLKAYTILESLKREGLKSPLQVYRALDKLVELGIIHKIESQNSFI | -0.334
HMDYNMEEWSLTADQLKSGDTILILNLGKTATLLESTRGKKNVRVRMGNIKTIVETSSIRGNPHQ | -1.77
HMDYPFQYFNYSHLRILGVPAQLIKAVRKAPTLDAIEQLSGLSEKTKLWLLELATEPKLEDVLFDPGR | -1.98
HMDYRSMSGLQKAALLIMSVGEETAAKLFQLMHDDEIREISQTMANLGTVNATVIERLFVEFADAISS | -1.1
HMDYVKTLGETINVRVAASTDADIYKLLPGGEILNRVGYNEEWTKVMVDGSTFYVYSEYVIQTEPPA | -1.32
HMDYYSILGVDRNATGEDIKKAFKKKAMKYHPDRNPDNKESERKFKEAKEAYDTLSNPQKKSMYDQFGT | 0.149
HMEAEDLRDWVGARGIAYTALRPAGIAVVNGRRVDVVSEGAFVNRDDPVEVVRVEGRRIVVKP | -0.0876
HMEAGTEYVERAADYIRSHFQEDLTVSKLALYVGLNRSYLTTVFQNTLHVSPQQFLMRFRMERAAQLLD | 0.0997
HMEAGTVTVTHAAVYIRSGPGVSYPIAGKAAKNDTYTVLQKDGDWFQIRLPQGNTGWIAGWLVETGT | -1.69
HMEAISIYPNPTDNELHLSTSVQEVRIYNMYGIEVTRAANTDRLAVSHLPKGVYLVHADGAVLKMIK | -2.7
HMEAISSESIKKMIKSYVSGEDASKPLSDQQIADLLVKEGYMISRRTVAKYRDELGILSSSKRKR | -0.152
HMEAKQMDAWIVSEAKRQGGKIEPAAAYELSRHTATDTSIASQEIAKLLMYVDFKRPVTREDVVELVSA | 0.0579
HMEALPELTDRQRQVYEFIEARIAEWGYPPTIREIGQHLGIKSTNGVADHLKALKRKGYLQQ | -0.566
HMEALTPREREVLTLMGQGRSNAEIATLLSIAPRTAKVHVQNILSKLGATNRTEAVSLAVRQGLIS | 0.343
HMEASVNAPMPGKIVSVSVSEGQQVNAGDVLLILEAMKMQNEITADAAGTVKAINVNAGQSVKNGDSLVIL | 0.832
HMEAVGLTPRQGDVLALLLQGKPNKLIARDLNLSVETVKDHVAAVLRALGVSTRTQAVLAVSQMQQQAAQ | -0.444
